Drawing on publication PMC3037364, this text covers decrease in invasion efficiency of RHΔama1/AMA1-myc parasites (about 10% of wild-type TgAMA1 level) after pre-incubation with 2.5-5 µM GST-D3, relative to buffer control for one substance.

The target of this assay is TgAMA1, intact full-length integral membrane form (Toxoplasma gondii (endogenous in RH strain parasites)) (UniProt B6KAM0).
UniProt B6KAM0, sequence (B6KAM0 67-569): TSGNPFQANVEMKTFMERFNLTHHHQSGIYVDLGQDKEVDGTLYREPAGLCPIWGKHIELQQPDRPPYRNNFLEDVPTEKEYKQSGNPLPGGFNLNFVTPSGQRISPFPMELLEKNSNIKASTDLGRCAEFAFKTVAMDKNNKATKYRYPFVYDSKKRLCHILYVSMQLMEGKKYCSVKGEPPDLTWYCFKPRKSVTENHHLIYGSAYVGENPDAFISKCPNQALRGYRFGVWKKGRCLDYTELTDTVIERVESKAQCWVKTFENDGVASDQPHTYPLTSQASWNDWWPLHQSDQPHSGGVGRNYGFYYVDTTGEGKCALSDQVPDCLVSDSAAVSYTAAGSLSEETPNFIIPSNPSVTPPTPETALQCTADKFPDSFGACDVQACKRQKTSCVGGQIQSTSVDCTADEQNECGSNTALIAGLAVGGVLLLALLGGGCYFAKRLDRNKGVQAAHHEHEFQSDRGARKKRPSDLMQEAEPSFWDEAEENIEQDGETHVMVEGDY

“GST-domain 3 (D3) of TgRON2 (domain or fragment)” showed a decrease in invasion efficiency of RHΔama1/AMA1-myc parasites (about 10% of wild-type TgAMA1 level) after pre-incubation with 2.5-5 µM GST-D3, relative to buffer control of 87%.
